Molecular target: PAC1 receptor expressed in Chinese hamster ovary (CHO) cells (UniProt P41586)
Test: cell-based or functional assay

Sequence of UniProt P41586 (P41586 21-468 limits assumed): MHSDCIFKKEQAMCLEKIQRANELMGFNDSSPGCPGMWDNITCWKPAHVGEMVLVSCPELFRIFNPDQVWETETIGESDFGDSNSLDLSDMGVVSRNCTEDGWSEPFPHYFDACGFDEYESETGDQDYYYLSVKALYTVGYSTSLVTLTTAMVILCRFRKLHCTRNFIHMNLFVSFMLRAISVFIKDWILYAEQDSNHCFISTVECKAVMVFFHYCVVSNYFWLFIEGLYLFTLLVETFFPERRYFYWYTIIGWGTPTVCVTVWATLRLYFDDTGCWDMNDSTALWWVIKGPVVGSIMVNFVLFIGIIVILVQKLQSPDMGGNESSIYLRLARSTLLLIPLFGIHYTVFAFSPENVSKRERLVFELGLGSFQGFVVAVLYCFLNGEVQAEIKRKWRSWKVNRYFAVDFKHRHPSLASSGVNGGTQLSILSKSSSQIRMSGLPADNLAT

inhibition of PACAP27-stimulated GTPγ-35S binding to membranes of PAC1-expressing CHO cells, IC50: 100 nM
Substance: PACAP(6-38)NH2 (from UniProt P18509 87-119) (peptide)

— US20100112601A1
